The source of these data is article PMC4383324.

Experiment [1] addresses MyrNCS-1 His6 (N-terminally myristoylated NCS-1 with a carboxyl terminal His6-tag) (UniProt P62166). Kind of experiment: SEC-MALS. On the technique in general: SEC sorts molecules by how far they enter the pores of the column.
For experiment [2] the target is unchanged. Kind of experiment: micro-batch multi-angle laser light scattering.
For experiment [3] the target is unchanged. Kind of experiment: AUC.

Broadly, the stoichiometry N is the number of molecules, sites or subunits per partner or assembly. A word on the Kd: it is a measure of binding affinity in units of concentration. Read a low Kd as higher affinity.

On to “MyrNCS-1 His6 (N-terminally myristoylated NCS-1 with a carboxyl terminal His6-tag) (from UniProt P62166 1-190) (natural protein)”, for which, in experiment [1], the stoichiometry N was determined as 2. Besides, the Kd is 10 µM in experiment [2] and 2 µM in experiment [3].
